Measurements from US20160272937A1, “METHODS OF GENERATING INTERMEDIATE MESODERM CELLS FROM HUMAN PLURIPOTENT STEM CELLS” (THE BRIGHAM AND WOMEN'S HOSPITAL, INC., priority 2013, published 2016).

Columns and labels:
[1] = system: CHIR-induced hPSCs; assay: Growth factor screen for PAX2 induction in CHIR-induced mesendodermal cells (immunostaining); format: cell-based, human; conditions: day 4
Experimental: For immunofluorescence studies, cultures are washed once with PBS (Invitrogen) and fixed in 4% paraformaldehyde for 15 min at room temperature (RT). Fixed cells are then washed three times in PBS and incubated in blocking buffer (0.3% Triton X-100 (Fisher Scientific) and 5% normal donkey serum (EMD Millipore) in PBS) for 1 hour at RT.
The cells are then incubated with primary antibody overnight at 4° C. or for 2 hours at RT in antibody dilution buffer (0.3% Triton X-100 and 1% BSA (Roche) in PBS). Cells are then washed three times in PBS and incubated with Alexa Fluor 488-, 555-, or 647-conjugated secondary antibodies (1:500) (Molecular Probes) in antibody dilution buffer for 1 hour at RT. For immunostaining with Biotinylated Lotus Tetragonolobus Lectin (LTL, Vector Labs), a Streptavidin/Biotin Blocking Kit (Vector Labs) and Alexa Fluor 488- or 647-conjugated Streptavidin (Molecular Probes) were used according to manufacturer's instructions.
Nuclei can be counterstained with DAPI (Sigma). […] Immunofluorescence is visualized using an inverted fluorescence microscope (Nikon Eclipse Ti, Tokyo, Japan). Quantification is performed by counting a minimum of five random fields at 10× magnification.
PAX2 is selected since it is an early marker of IM, and, unlike the markers OSR1 or LHX1 which are also expressed in the adjacent lateral plate mesoderm, PAX2 expression is restricted in mesoderm to the IM.

[2] = system: hPSCs (hESC and hiPSC lines); assay: Intermediate mesoderm differentiation: PAX2/LHX1 immunostaining; format: cell-based, human; conditions: BMP-7 added to FGF2 and RA after CHIR 36 hours, day 3
Experimental: Mesendoderm differentiation—the media is changed to Advanced RPMI (A-RPMI, Invitrogen) supplemented with 1×L-glutamax and 1× penicillin/streptomycin and either CHIR99021 (CHIR, Stemgent), human Wnt3a (R&D systems), and/or human activin A (R&D systems) at the doses described. Definitive endoderm differentiation—cells are treated with A-RPMI+1×L-glu+1×P/S+5 μM CHIR for 24 hours, then A-RPMI+1×Lglu+1×P/S+100 ng/mL of activin A for 2-3 days. Hepatic differentiation—cells at the definitive endoderm stage are treated with A-RPMI+1×L-glu+1×P/S+1×B27 supplement (Invitrogen)+20 ng/mL BMP-4 (R&D systems)+10 ng/mL FGF2 (Invitrogen) for 5 days, then A-RPMI+1×L-glu+1×P/S+1×B27+10 ng/mL HGF for 5 days, then HCM Hepatocyte Culture Medium (Lonza) supplemented with 20 ng/mL Oncostatin M and 10 ng/mL HGF (Peprotech) for 5 days. Pancreatic differentiation—cells at the definitive endoderm stage are treated with DMEM/F12+2% FBS (Hyclone)+50 ng/mL FGF7 (R&D systems) for 2 days, then high-glucose DMEM (Mediatech)+1% B27+2 μM retinoic acid (Sigma)+0.25 μM KAAD cyclopamine (EMD Millipore)+100 ng/mL recombinant human Noggin (R&D systems) for 4 days, then high-glucose DMEM+1% B27+100 ng/mL Noggin+300 nM indolactam V (Stemgent)+1 μM ALK5 inhibitor II (Axxora) for 4 days. Anterior foregut endoderm differentiation—cells at the definitive endoderm stage are treated with DMEM/F12+1×L-glu+1×B27+200 ng/mL Noggin+10 μM SB431542 (Stemgent) for 3 days. For hindgut endoderm differentiation, cells at the definitive endoderm stage were treated with A-RPMI+1×L-glu+1×P/S+2% FBS+500 ng/mL FGF4 (R&D systems)+5 μM CHIR for 4 days. […]
Nuclei can be counterstained with DAPI (Sigma). […] Immunofluorescence is visualized using an inverted fluorescence microscope (Nikon Eclipse Ti, Tokyo, Japan). Quantification is performed by counting a minimum of five random fields at 10× magnification. […]

[3] = system: human pluripotent stem cells (hPSCs); assay: Mesendoderm induction: BRACHYURY immunofluorescence in hPSCs; format: cell-based; conditions: WNT3A alone 500 ng/mL, 24 hours of treatment
Experimental: For differentiation experiments, hESCs or hiPSCs can be grown on Geltrex, washed once with PBS and dissociated into single cells with Accutase ([…] Technologies). Cells are plated at a density of 4×10^4 cells/cm^2 onto Geltrex-coated plates in mTeSR1 medium supplemented with the ROCK inhibitor Y27632 10 μM (Stemgent). Cells are fed daily with mTeSR1 without Y27632 for 2-3 days until they reached 50% confluency. Mesendoderm differentiation-the media is changed to Advanced RPMI (A-RPMI, Invitrogen) supplemented with 1×L-glutamax and 1× penicillin/streptomycin and either CHIR99021 (CHIR, Stemgent), human Wnt3a (R&D systems), and/or human activin A (R&D systems) at the doses described. Definitive endoderm differentiation-cells are treated with […] for 24 hours, then […]+100 ng/mL of activin A for 2-3 days. Hepatic differentiation-cells at the definitive endoderm stage are treated with […]27 supplement (Invitrogen)+20 ng/mL BMP-4 (R&D systems)+10 ng/mL FGF2 (Invitrogen) for 5 days, then […]27+10 ng/mL HGF for 5 days, then HCM Hepatocyte Culture Medium (Lonza) supplemented with 20 ng/mL Oncostatin M and 10 ng/mL HGF (Peprotech) for 5 days. Pancreatic differentiation-cells at the definitive endoderm stage are treated with DMEM/F12+2% FBS (Hyclone)+50 ng/mL FGF7 (R&D systems) for 2 days, then high-glucose DMEM (Mediatech)+1% B27+2 μM retinoic acid (Sigma)+0.25 μM KAAD cyclopamine (EMD Millipore)+100 ng/mL recombinant human Noggin (R&D systems) for 4 days, then high-glucose DMEM+1% B27+100 ng/mL Noggin+300 nM indolactam V (Stemgent)+1 μM ALK5 inhibitor II (Axxora) for 4 days. Anterior foregut endoderm differentiation-cells at the definitive endoderm stage are treated with DMEM/F12+1×L-glu+1×B27+200 ng/mL Noggin+10 μM SB431542 (Stemgent) for 3 days. […] Immunofluorescence is visualized using an inverted fluorescence microscope (Nikon Eclipse Ti, Tokyo, Japan). Quantification is performed by counting a minimum of five random fields at 10× magnification. […]

Molecule: FGF2: fibroblast growth factor-2
- cells positive for PAX2 by immunostaining ([1]; CHIR 24 hours then FGF2 100 ng/mL): 50-60%
- PAX2 expression ([1]; FGF2 added to hPSCs not initially induced with CHIR): absence of PAX2 expression

B1: BMP-7: candidate growth factor screened for PAX2 induction (protein, UniProt P18075 293-431, looked up)
Bone morphogenetic protein 7: STGSKQRSQNRSKTPKNQEALRMANVAENSSSDQRQACKKHELYVSFRDLGWQDWIIAPEGYAAYYCEGECAFPLNSYMNATNHAIVQTLVHFINPETVPKPCCAPTQLNAISVLYFDDSSNVILKKYRNMVVRACGCH
- PAX2 expression compared to vehicle control ([1]; CHIR 24 hours then low doses of factor): modest increases
- expression of LHX1 [2]: minimal effect
- percentage of cells expressing PAX2 [2]: significantly decreased

B2: WNT3A: wingless-type MMTV integration site family, member 3A; human Wnt3a (R&D systems) (protein, UniProt P56704 19-352, looked up)
Protein Wnt-3a: SYPIWWSLAVGPQYSSLGSQPILCASIPGLVPKQLRFCRNYVEIMPSVAEGIKIGIQECQHQFRGRRWNCTTVHDSLAIFGPVLDKATRESAFVHAIASAGVAFAVTRSCAEGTAAICGCSSRHQGSPGKGWKWGGCSEDIEFGGMVSREFADARENRPDARSAMNRHNNEAGRQAIASHMHLKCKCHGLSGSCEVKTCWWSQPDFRAIGDFLKDKYDSASEMVVEKHRESRGWVETLRPRYTYFKVPTERDLVYYEASPNFCEPNPETGSFGTRDRTCNVSSHGIDGCDLLCCGRGHNARAERRREKCRCVFHWCCYVSCQECTRVYDVHTCK
- cells expressing BRACHY [3]: 26.7±1.9%

B3: BMP-4: candidate growth factor screened for PAX2 induction (protein, UniProt P12644 293-408, looked up)
Bone morphogenetic protein 4: SPKHHSQRARKKNKNCRRHSLYVDFSDVGWNDWIVAPPGYQAFYCHGDCPFPLADHLNSTNHAIVQTLVNSVNSSIPKACCVPTELSAISMLYLDEYDKVVLKNYQEMVVEGCGCR
- PAX2 expression ([1]; CHIR 24 hours then increasing doses of factor): no PAX2 expression
